Experiments:
HIV-1 Env gp41 (HIV-1) = assay: Luminex bead assay
[1] = target: gp120 (Table 2, strain not given) (HIV-1); assay: Luminex bead assay
[2] = target: A244gD+ gp120 (herpes simplex virus; HIV-1); assay: SPR
[3] = target: HV00043 (63521 TC21 140C) (HIV-1); assay: SPR
[4] = target: HV00044 (6240 TZ5 140C) (HIV-1); assay: SPR
[5] = target: Env of HIV-1 7165.18.N160K (HIV-1); assay: cell-based or functional assay
[6] = target: Env of HIV-1 JRCSF.N160K (HIV-1) (UniProt P20871); assay: cell-based or functional assay
[7] = target: Env of HIV-1 JRFL.E168K (HIV-1); assay: cell-based or functional assay
[8] = target: Env of HIV-1 JRFL.N160K.E168K (HIV-1); assay: cell-based or functional assay
[9] = target: Env of HIV-1 Q23.17.N160K (HIV-1); assay: cell-based or functional assay
[10] = target: Env of HIV-1 clade A isolate Q23.17 (HIV-1); assay: cell-based or functional assay
[11] = target: Env of HIV-1 clade B isolate 7165.18 (HIV-1); assay: cell-based or functional assay
[12] = target: Env of HIV-1 clade B isolate JR-CSF (HIV-1) (UniProt P20871); assay: cell-based or functional assay
[13] = target: Env of HIV-1 clade B isolate JRFL (virus) (HIV-1); assay: cell-based or functional assay
HCV E2 (HCV) = assay: Luminex assay, antibody 50 µg/ml
[14] = target: Influenza HA (Wisconsin) (influenza virus); assay: Luminex assay, antibody 50 µg/ml
Histone autoantigen [15] = assay: Athena assay, mAb 50 ug/ml; positive >50
Jo 1 autoantigen [16] = assay: Athena assay, mAb 50 ug/ml; positive >50
RNP autoantigen [17] = assay: Athena assay, mAb 50 ug/ml; positive >50
SSA autoantigen [18] = assay: Athena assay, mAb 50 ug/ml; positive >50
SSB autoantigen [19] = assay: Athena assay, mAb 50 ug/ml; positive >50
Scl 70 autoantigen [20] = assay: Athena assay, mAb 50 ug/ml; positive >50
Sm autoantigen [21] = assay: Athena assay, mAb 50 ug/ml; positive >50
centromere B autoantigen [22] = assay: Athena assay, mAb 50 ug/ml; positive >50
Histone autoantigen [23] = assay: Athena assay, mAb 12.5 ug/ml; positive >50
Jo 1 autoantigen [24] = assay: Athena assay, mAb 12.5 ug/ml; positive >50
RNP autoantigen [25] = assay: Athena assay, mAb 12.5 ug/ml; positive >50
SSA autoantigen [26] = assay: Athena assay, mAb 12.5 ug/ml; positive >50
SSB autoantigen [27] = assay: Athena assay, mAb 12.5 ug/ml; positive >50
Scl 70 autoantigen [28] = assay: Athena assay, mAb 12.5 ug/ml; positive >50
Sm autoantigen [29] = assay: Athena assay, mAb 12.5 ug/ml; positive >50
centromere B autoantigen [30] = assay: Athena assay, mAb 12.5 ug/ml; positive >50
Histone autoantigen [31] = assay: Athena assay, mAb 6.25 ug/ml; positive >50
Jo 1 autoantigen [32] = assay: Athena assay, mAb 6.25 ug/ml; positive >50
RNP autoantigen [33] = assay: Athena assay, mAb 6.25 ug/ml; positive >50
SSA autoantigen [34] = assay: Athena assay, mAb 6.25 ug/ml; positive >50
SSB autoantigen [35] = assay: Athena assay, mAb 6.25 ug/ml; positive >50
Scl 70 autoantigen [36] = assay: Athena assay, mAb 6.25 ug/ml; positive >50
Sm autoantigen [37] = assay: Athena assay, mAb 6.25 ug/ml; positive >50
centromere B autoantigen [38] = assay: Athena assay, mAb 6.25 ug/ml; positive >50

Substance 17b original CCR5 binding site antibody has a Reactivity in Luminex Units (Luminex Units) (HIV-1 Env gp41 (HIV-1)) of 1430.

1b12 original (antibody) was tested, and the Reactivity in Luminex Units (Luminex Units) [1] was 5110.

Substance PG16 (antibody) has a Kd [2] of 450 nM, a Kd [3] of 160 nM and a Kd [4] of 110 nM. The IC50 ug/ml (virus neutralization) [5] was over 50 µg/mL, the IC80 ug/ml (virus neutralization) [5] was over 50 µg/mL and the IC50 ug/ml (virus neutralization) [6] was over 50 µg/mL. It also gave an IC80 ug/ml (virus neutralization) [6] of over 50 µg/mL, an IC50 ug/ml (virus neutralization) [7] of 0.003 µg/mL and an IC80 ug/ml (virus neutralization) [7] of 0.015 µg/mL. It also gave an IC50 ug/ml (virus neutralization) [8] of over 50 µg/mL, an IC80 ug/ml (virus neutralization) [8] of over 50 µg/mL and an IC50 ug/ml (virus neutralization) [9] of over 50 µg/mL. The IC80 ug/ml (virus neutralization) [9] was over 50 µg/mL, the IC50 ug/ml (virus neutralization) [10] was 0.001 µg/mL and the IC80 ug/ml (virus neutralization) [10] was 0.003 µg/mL. It also gave an IC50 ug/ml (virus neutralization) [11] of 11.8 µg/mL, an IC80 ug/ml (virus neutralization) [11] of over 50 µg/mL and an IC50 ug/ml (virus neutralization) [12] of 0.003 µg/mL. The IC80 ug/ml (virus neutralization) [12] was 0.012 µg/mL, the IC50 ug/ml (virus neutralization) [13] was over 50 µg/mL and the IC80 ug/ml (virus neutralization) [13] was over 50 µg/mL. The background substracted RFUs (HCV E2 (HCV)) was 0 RFU, the background substracted RFUs [14] was 0 RFU and the Autoreactivity (Athena) (Histone autoantigen [15]) was 2. The Autoreactivity (Athena) (Jo 1 autoantigen [16]) was 0, the Autoreactivity (Athena) (RNP autoantigen [17]) was 2 and the Autoreactivity (Athena) (SSA autoantigen [18]) was 4. For the same substance, the Autoreactivity (Athena) (SSB autoantigen [19]) was 2, the Autoreactivity (Athena) (Scl 70 autoantigen [20]) was 1 and the Autoreactivity (Athena) (Sm autoantigen [21]) was 0. The Autoreactivity (Athena) (centromere B autoantigen [22]) was 3, the Autoreactivity (Athena) (Histone autoantigen [23]) was 8 and the Autoreactivity (Athena) (Jo 1 autoantigen [24]) was 1. For the same substance, the Autoreactivity (Athena) (RNP autoantigen [25]) was 3, the Autoreactivity (Athena) (SSA autoantigen [26]) was 4 and the Autoreactivity (Athena) (SSB autoantigen [27]) was 4. The Autoreactivity (Athena) (Scl 70 autoantigen [28]) was 1, the Autoreactivity (Athena) (Sm autoantigen [29]) was 2 and the Autoreactivity (Athena) (centromere B autoantigen [30]) was 4. It also gave an Autoreactivity (Athena) (Histone autoantigen [31]) of 8, an Autoreactivity (Athena) (Jo 1 autoantigen [32]) of 2 and an Autoreactivity (Athena) (RNP autoantigen [33]) of 2. The Autoreactivity (Athena) (SSA autoantigen [34]) was 5, the Autoreactivity (Athena) (SSB autoantigen [35]) was 5 and the Autoreactivity (Athena) (Scl 70 autoantigen [36]) was 2. It also gave an Autoreactivity (Athena) (Sm autoantigen [37]) of 2 and an Autoreactivity (Athena) (centromere B autoantigen [38]) of 5.

Source: patent US20120321699A1
